From paper PMC7234810 (2020)

Assays:
[1] = biological target: HpBARI expressed with C-terminal tags (Heligmosomoides polygyrus); assay: SPR
[2] = biological target: H. polygyrus Binds Alarmin Receptor and Inhibits (HpBARI), N-terminal tagged (Heligmosomoides polygyrus); assay: SPR

B1: Mouse IL-33-TRAP-Fc (a fusion protein of ST2 and IL-1RAcP with an Fc tag) (Fc fusion)
chain: SKSSWGLENEALIVRCPQRGRSTYPVEWYYSDTNESIPTQKRNRIFVSRDRLKFLPARVEDSGIYACVIRSPNLNKTGYLNVTIHKKPPSCNIPDYLMYSTVRGSDKNFKITCPTIDLYNWTAPVQWFKNCKALQEPRFRAHRSYLFIDNVTHDDEGDYTCQFTHAENGTNYIVTATRSFTVEEKGFSMFPVITNPPYNHTMEVEIGKPASIACSACFGKGSHFLADVLWQINKTVVGNFGEARIQEEEGRNESSSNDMDCLTSVLRITGVTEKDLSLEYDCLALNLHGMIRHTIRLRRKQPIDHRSERCDDWGLDTMRQIQVFEDEPARIKCPLFEHFLKYNYSTAHSSGLTLIWYWTRQDRDLEEPINFRLPENRISKEKDVLWFRPTLLNDTGNYTCMLRNTTYCSKVAFPLEVVQKDSCFNSAMRFPVHKMYIEHGIHKITCPNVDGYFPSSVKPSVTWYKGCTEIVDFHNVLPEGMNLSFFIPLVSNNGNYTCVVTYPENGRLFHLTRTVTVKVVGSPKDALPPQIYSPNDRVVYEKEPGEELVIPCKVYFSFIMDSHNEVWWTIDGKKPDDVTVDITINESVSYSSTEDETRTQILSIKKVTPEDLRRNYVCHARNTKGEAEQAAKVKQKVIPPRYTVELACGFGAT
For B1, which koff [1] is on record?
Its koff is about 0.13 s⁻¹.

And the koff [2]?
The koff was about 0.04 s⁻¹.
